Measured values taken from paper PMC11388340, “HIRA complex deposition of histone H3.3 is driven by histone tetramerization and histone-DNA binding”.

Key:
[1] = target: HIRA-WB;UBN1-NM;H3.3/H4 (human;human;Homo sapiens (H3.3); …, UniProt P54198;Q9NPG3;P84243;P62799 1-473;1-584;2-136;2-103, ||); test: fluorescence polarization; 20 mM HEPES pH 7.5, 150 mM NaCl, 0.5 mM TCEP, 0.001% Tween-20, 1 mg/ml BSA; 10 nM probe; temperature not stated
[2] = target: H3.3/H4 (Homo sapiens (H3.3); Xenopus laevis (H4), UniProt P84243;P62799 2-136;2-103); test: as above
[3] = target: HIRA-WB;UBN1-NM (human;human, UniProt P54198;Q9NPG3 1-473;1-584, |); test: fluorescence polarization; no histones; 20 mM HEPES pH 7.5, 150 mM NaCl, 0.5 mM TCEP, 0.001% Tween-20, 1 mg/ml BSA; 10 nM probe; temperature not stated; conditions: protein: recombinant;recombinant; tags: N-terminal His;; copies: 1;1; label: 5'-FAM on sense strand; blunt
[4] = target: HIRA-WB;UBN1-NM;ASF1a-C (human;human;human?, UniProt P54198;Q9NPG3;Q9Y294 1-473;1-584;1-156, ||); test: as above; conditions: protein: recombinant;recombinant;recombinant; tags: N-terminal His;;GST cleaved with precision protease; copies: 1;1;1; label: 5'-FAM on sense strand; blunt

B1: 10x ATGC 40-mer dsDNA (dsDNA)
DNA 1: ATGCATGCATGCATGCATGCATGCATGCATGCATGCATGC
DNA 2: GCATGCATGCATGCATGCATGCATGCATGCATGCATGCAT
- Kd [1]: 40 nM
- Kd [2]: 240 nM
- Kd [3]: 370 nM
- Kd [4]: 970 nM
